# From patent US8187838B2, “β-Galactoside-α2, 6-sialyltransferase, a gene encoding thereof, and a method for producing thereof” (Japan Tobacco Inc., priority 2006, dated 2012)
# Entries after “also recorded” stand apart in the source; their conditions may differ.
# B1: ISH224-N3C0: truncated protein, SEQ ID NO: 12: methionine plus amino acids 111-514 of SEQ ID NO: 2 (protein, listed as Photobacterium sp.)
# chain: MNVVAPSLEVYVDHASLPTLQQLMDIIKSEEENPTAQRYIAWGRIVPTDEQMKELNITSFALINNHTPADLVQEIVKQAQTKHRLNVKLSSNTAHSFDNLVPILKELNSFNNVTVTNIDLYDDGSAEYVNLYNWRDTLNKTDNLKIGKDYLEDVINGINEDTSNTGTSSVYNWQKLYPANYHFLRKDYLTLEPSLHELRDYIGDSLKQMQWDGFKKFNSKQQELFLSIVNFDKQKLQNEYNSSNLPNFVFTGTTVWAGNHEREYYAKQQINVINNAINESSPHYLGNSYDLFFKGHPGGGIINTLIMQNYPSMVDIPSKISFEVLMMTDMLPDAVAGIASSLYFTIPAEKIKFIVFTSTETITDRETALRSPLVQVMIKLGIVKEENVLFWADLPNCETGVCIAV
# Assays:
# [1] = Sialyltransferase activity in homogenate of E. coli carrying the JT-ISH-224 gene clones (14C-NeuAc transfer to lactose); type: biochemical; conditions: crude enzyme solution from E. coli TB1
# Method: (§1) Sialyltransferase activity was measured as described in J. Biochem., 120, 104-110 (1996) (which is hereby incorporated by reference in its entirety). More specifically, the enzymatic reaction was accomplished by using CMP-NeuAc (70 nmol, containing about 20,000 cpm CMP-NeuAc in which NeuAc was labeled with ^14C; NeuAc represents N-acetylneuraminic acid) as a glycosyl donor substrate, lactose (1.25 μmol) as a glycosyl acceptor substrate, NaCl added to give a concentration of 0.5 M, and the enzyme-containing reaction solution (30 μl) prepared as described above. The enzymatic reaction was carried out at 25° C. for about 10 to 180 minutes. After completion of the reaction, 1.97 ml of 5 mM phosphate buffer (pH 6.8) was added to the reaction solution, which was then applied to a Dowex 1×8 (PO4^3− form, 0.2×2 cm, BIO-RAD) column. The radioactivity was measured for the reaction product, i.e., sialyllactose contained in the eluate (0 to 2 ml) from this column to calculate the enzyme activity. One enzyme unit (1 U) is defined as the amount of enzyme required to transfer 1 micromole of sialic acid per minute.
# An induction experiment of protein expression was performed on the five clones obtained in (3) above (i.e., ISH224-N0C0/pTrc, ISH224-N1C0/pTrc, ISH224-N2C0/pTrc, ISH224-N3C0/pTrc and ISH224-N3.1C0/pTrc). A single colony of E. coli TB1 having the expression vector pTrc99A carrying each clone was inoculated into LB medium (6 ml) containing an antibiotic, ampicillin (final concentration 100 μg/mL), and pre-cultured at 30° C. to about A600=0.5, followed by addition of IPTG (isopropyl-β-D(−)-thiogalactopyranoside, Wako Pure Chemical Industries, Ltd., Japan) at a final concentration of 1 mM. After culturing with shaking at 30° C. for an additional 4 hours, the cells in 4 ml culture solution were collected by centrifugation. These cells were suspended in 200 μl of 20 mM Bis-Tris buffer (pH 7.0) containing 0.336% Triton® X-100 and 0.5 M sodium chloride, and ultrasonically homogenized under ice cooling. The resulting homogenate was defined as a crude enzyme solution, diluted 200-fold with 20 mM cacodylate buffer (pH 5.0) containing 0.336% Triton® X-100, and then provided for activity measurement. The reaction was carried out in duplicate. The reaction conditions are as indicated in the footnotes of Tables 1-1 and 1-2.
# (§2) Reaction Conditions Reaction composition:
# Reaction time: 2 minutes Reaction temperature: 30° C.
# [2] = Sialyltransferase activity of samples after each purification step; type: biochemical; conditions: for Specific activity (U/mg) / Total activity (U): cacodylate pH 5, 5 minutes, 30° C.
# Method: as §1
# The enzyme activity was measured by the method reported in J. Biochem. 120, 104-110 (1996), in the same manner as described in Example 1 under conditions as indicated in the footnote of Table 3-1. For protein quantification, a Coomassie Protein Assay Reagent (PIERCE) was used according to the instruction manual attached thereto. One enzyme unit (1U) was defined as the amount of enzyme required to transfer 1 micromole of sialic acid per minute.
# Reaction time: 5 minutes Reaction temperature: 25° C.
# The enzyme activity was measured by the method reported in J. Biochem. 120, 104-110 (1996), in the same manner as described in Example 1 under conditions as indicated in the footnote of Table 3-2. For protein quantification, a Coomassie Protein Assay Reagent (PIERCE) was used according to the instruction manual attached thereto. One enzyme unit (1U) was defined as the amount of enzyme required to transfer 1 micromole of sialic acid per minute.
# as §2
# Reaction time: 5 minutes Reaction temperature: 30° C.
# [3] = after MONO Q (purified fraction)
molecule,measurement,setting,value
B1,sialyltransferase activity of the expressed clone (in words),[1],smallest clone that retained the activity
same,sialyltransferase activity of the expressed clone (in words),[1]; listed as ISH224-N3C0/pTrc,expressed sialyltransferase; also recorded: retained the activity
same,Specific activity (U/mg),[2]; Crude enzyme solution,2.0 U/mg
same,Total activity (U),[2]; Crude enzyme solution,4911 U
same,Specific activity (U/mg),[2]; after Hydroxyapatite,151 U/mg
same,Total activity (U),[2]; after Hydroxyapatite,997 U
same,Specific activity (U/mg),[2]; [3],264 U/mg
same,Total activity (U),[2]; [3],808 U
same,Specific activity (U/mg),[2]; after Q SEPHAROSE,26.5 U/mg
same,Total activity (U),[2]; after Q SEPHAROSE,3614 U
same,"fold higher specific activity than Pasteurella multocida-derived β-galactoside-α2,3-sialyltransferase (60 U/mg)",[2]; purified fraction,about 4.4 fold
same,"fold higher specific activity than β-galactoside-α2,6-sialyltransferase derived from Photobacterium damselae strain JT0160 (5.5 U/mg)",[2]; purified fraction,about 48 fold
